# Measured values taken from paper PMC10499894.
# Several values for one entry are separate records, joined by “and”; a condition that tells them apart may be missing. Equal values may be shown once.
# Assays:
# [1] = target: TadD, native sequence, tag not given (P. aeruginosa PAO1); test: pull-down; cysteine mutants of RcpA and TadD co-expressed in E. coli, single strep tag pulldown; RcpA-TadD particles counted on five negative stain EM micrographs per mutant (Laplacian-of-Gaussian blob detection), SDS-PAGE
# [2] = target: RcpA_(strep), C-terminally strep-tagged RcpA (P. aeruginosa PAO1) (UniProt Q9HW96); test: cryo-EM structure; RcpA_(strep)-TadD_(FLAG) complex co-expressed in E. coli, double pulldown (StrepTrap, ANTI-FLAG M2), 0.06% DDM; graphene oxide support and tilted collection; C13 map at 2.7 Å, focussed TadD map; on holey carbon grids TadD was stripped off
# [3] = target: _(strep)RcpA, N-terminally strep-tagged RcpA (P. aeruginosa PAO1) (UniProt Q9HW96); test: pull-down; RcpA constructs with the strep tag at the N-terminus co-expressed with TadD in E. coli; single strep tag pulldown; SDS-PAGE, Western blot and negative stain EM 2D class averages
# [4] = target: TadD D139C (P. aeruginosa PAO1); test: pull-down; cysteine mutants of RcpA and TadD co-expressed in E. coli, single strep tag pulldown; RcpA-TadD particles counted on five negative stain EM micrographs per mutant (Laplacian-of-Gaussian blob detection), SDS-PAGE
# [5] = target: RcpA, endogenous in P. aeruginosa PAO1 (P. aeruginosa PAO1 (endogenous)) (UniProt Q9HW96); test: pull-down; P. aeruginosa PAO1 with chromosomal tadD_(strep), native expression levels; membranes extracted with DDM; Strep-Tactin Sepharose; eluate seen by anti-strep Western blot and negative stain EM 2D class averages
substance,measurement,setting,value
RcpA S415C (from UniProt Q9HW96 1-416) (natural protein),RcpA-TadD complex relative to native levels,[1],10%
same,RcpA-TadD particles relative to native levels,[1],14%
"RcpA_(strep), C-terminally strep-tagged RcpA (from UniProt Q9HW96 1-416) (natural protein)",stoichiometry N,[2],13 and 14
RcpA L414C (from UniProt Q9HW96 1-416) (natural protein),RcpA-TadD particles relative to native levels,[1],9%
"_(strep)RcpA, N-terminally strep-tagged RcpA (from UniProt Q9HW96 1-416) (natural protein)",stoichiometry N,[3],13 and 14
"RcpA, native sequence, in the cysteine cross-linking assay (tag not stated) (from UniProt Q9HW96 1-416) (natural protein)",RcpA-TadD particles relative to native TadD,[4],2%
"RcpA, endogenous in P. aeruginosa PAO1 (from UniProt Q9HW96 1-416) (natural protein)",stoichiometry N,[5],13 and 14
